Laboratory results: patent US20230034474A1 (AC IMMUNE, published 2023)

How the values were obtained:
[1] = target: T1, full-length sAPPalpha fragment (UniProt P05067-4 18-612, limits assumed); test: indirect ELISA, sAPPalpha coated
T1 construct: domain: sAPPalpha; Bought protein; also called soluble APP alpha; soluble amyloid precursor protein alpha
Procedure: (§1) Antibody target binding was evaluated by an enzyme-linked immunosorbent assay (ELISA). Briefly, Nunc MaxiSorp 96-well plates (Nunc) were coated for 18 h at 4° C. with 50 μL of 10 pg/mL Abeta1-42 or bovine serum albumin (BSA, Sigma) diluted in PBS. In selected assays, the full-length sAPPalpha fragment (Sigma) was additionally included by coating wells as described above, but at 4 pg/mL (0.04 μM). Plates were then washed 4-times with 300 μL of PBS containing 0.05% Tween20 (Millipore). To block non-specific binding to the plate, freshly prepared solution of PBS containing 0.05% Tween20 and 1% BSA, was added to each well (100 μL/well) and the plates were incubated for 1 h at 37° C. Primary antibodies were diluted to 100 nM in PBS containing 1% BSA and 0.05% Tween20, followed by 3-fold serial dilutions in duplicates. Solutions were added to plates at 50 μL/well and incubated for 1 h at 37° C. Subsequently, the plates were washed 4-times with 300 μL of PBS containing 0.05% Tween20. Plates were then incubated with horseradish peroxidase (HRP) conjugated goat anti-mouse secondary IgG (Abcam) for 1 h at 37° C. After final wash step (4-times with 300 μL of PBS containing 0.05% Tween20), plates were incubated with 3,3′,5,5′-tetramethylbenzidine (TMB) substrate (BD Biosciences) and reaction stopped with a Stop Solution (Sigma). Finally, optical densities (O.D.) were read at 450 nm absorption wavelength using a Tecan Infinite plate reader. Measured values are expressed as mean O.D. from a duplicate run ±1 standard deviation of the mean (S.D.).

[2] = target: T2, Abeta1-42 (human); test: indirect ELISA, Abeta1-42 coated, antibody titrated
T2 construct: coated on plates in the direct ELISA, in solution as analyte in the sandwich ELISA; also called human Abeta 1-42; amyloid-beta 1-42
Procedure: as §1

[3] = target: T3, bovine serum albumin (bovine, UniProt P02769 25-607); test: indirect ELISA, plate coated with BSA, antibody titrated, anti-mouse IgG-HRP, O.D. 450 nm
T3 construct: Negative control antigen; also called BSA
Procedure: (§2) Antibody target binding was evaluated by an enzyme-linked immunosorbent assay (ELISA). Briefly, Nunc MaxiSorp 96-well plates (Nunc) were coated for 18 h at 4° C. with 50 μL of 10 pg/mL Abeta1-42 or bovine serum albumin (BSA, Sigma) diluted in PBS. In selected assays, the full-length sAPPalpha fragment (Sigma) was additionally included by coating wells as described above, but at 4 pg/mL (0.04 μM). Plates were then washed 4-times with 300 μL of PBS containing 0.05% Tween20 (Millipore). To block non-specific binding to the plate, freshly prepared solution of PBS containing 0.05% Tween20 and 1% BSA, was added to each well (100 μL/well) and the plates were incubated for 1 h at 37° C. Primary antibodies were diluted to 100 nM in PBS containing 1% BSA and 0.05% Tween20, followed by 3-fold serial dilutions in duplicates. Solutions were added to plates at 50 μL/well and incubated for 1 h at 37° C. Subsequently, the plates were washed 4-times with 300 μL of PBS containing 0.05% Tween20. Plates were then incubated with horseradish peroxidase (HRP) conjugated goat anti-mouse secondary IgG (Abcam) for 1 h at 37° C. […] Finally, optical densities (O.D.) were read at 450 nm absorption wavelength using a Tecan Infinite plate reader. Measured values are expressed as mean O.D. from a duplicate run ±1 standard deviation of the mean (S.D.).

[4] = target: T4, Human Abeta1-42 biotinylated at the peptide C-terminus (human, biotin at the peptide C-terminus); test: target capture ELISA
T4 construct: also called biotinylated Abeta1-42
Procedure: Briefly, a Nunc MaxiSorp 96-well plate (Nunc) was coated for 18 h at 4° C. with 50 μL of 5 pg/mL goat anti-mouse IgG, Fc-gamma fragment specific antibody (Jackson Immune Research) diluted in carbonate-bicarbonate buffer. The plate was then washed 4-times with 300 μL of PBS containing 0.05% Tween20 (Millipore). To block non-specific binding to the plate, freshly prepared solution of PBS containing 0.05% Tween20 and 1% BSA, was added to each well (100 μL/well) and the plate was incubated for 1 h at 37° C. […] Subsequently, the plate was washed 4-times with 300 μL of PBS containing 0.05% Tween20. […] After washing 4-times with 300 μL of PBS containing 0.05% Tween20, the plate was incubated for 45 min at ambient temperature with 50 μL/well of streptavidin-HRP (R&D systems) diluted 1:200 in PBS containing 1% BSA and 0.05% Tween20. The plate was again washed 4-times with 300 μL of PBS containing 0.05% Tween20 before incubating at ambient temperature for 20 or 30 min with 50 or 100 μL/well of 3,3′,5,5′-tetramethylbenzidine (TMB) enzyme substrate (BD Bioscience). Reaction was stopped with a 1.2 M HCl (Sigma) solution. Finally, optical densities (O.D.) were read at 450 nm absorption wavelength using a Tecan Infinite plate reader.

[5] = target: T2, Abeta1-42; test: indirect ELISA, plate coated with Abeta1-42, antibody titrated, anti-mouse IgG-HRP, O.D. 450 nm
Procedure: as §2

T1 sequence (P05067 other isoform, or with tags, fused parts or gaps limits assumed): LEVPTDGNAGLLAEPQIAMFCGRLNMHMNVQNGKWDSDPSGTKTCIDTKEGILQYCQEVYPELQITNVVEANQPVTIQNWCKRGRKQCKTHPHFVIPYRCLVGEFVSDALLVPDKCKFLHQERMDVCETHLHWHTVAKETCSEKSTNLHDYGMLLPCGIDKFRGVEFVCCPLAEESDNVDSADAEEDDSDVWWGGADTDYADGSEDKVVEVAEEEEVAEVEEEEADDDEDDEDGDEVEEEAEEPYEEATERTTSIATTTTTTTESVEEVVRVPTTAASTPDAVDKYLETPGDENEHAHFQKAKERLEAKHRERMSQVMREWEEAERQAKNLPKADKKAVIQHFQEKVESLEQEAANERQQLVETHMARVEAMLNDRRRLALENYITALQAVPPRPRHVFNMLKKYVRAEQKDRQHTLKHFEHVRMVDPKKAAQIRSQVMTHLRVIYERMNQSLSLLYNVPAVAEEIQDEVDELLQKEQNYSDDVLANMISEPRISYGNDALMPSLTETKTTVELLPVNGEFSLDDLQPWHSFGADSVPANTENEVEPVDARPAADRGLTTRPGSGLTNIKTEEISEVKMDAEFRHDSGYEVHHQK

B1: ACI-31-30C11-Ab1 (murine IgG2a with a kappa light chain) (antibody, V domains shown)
VH: QVQLQQSGPELVKPGASVKISCKASGYAFSSSWLNWVKQRPGEGLEWIGRIYPGDGDINYNGKFKGKATLTADKSSSTAYMQLSSLTSDDSAVYFCTKRGRYALDYWGQGTSVTVSS
VL: DIVLTQSPASLAVSLGQRATISCRASKSVDNYGKSFMHWFQQKPGQPPKLLIYRASNLESGIPARFSGSGSRTDFTLTINPVEADDVATYYCQQSNEDPYTFGGGTKLEMKR
notes: also called AC-31-30C11-Ab1
[1]
  binding result: no binding
[2]
  Kd: 0.196 nM
[3]
  binding result: no binding (tested: 100 nM)
[4]
  binding result: binds
[5]
  EC50 (read off the curve): ~0.2 nM
